Experimental data reported in patent US20130280758A1 (Regeneron, published 2013).

Target: T1, rat Tie-2 (rTie-2), as used in BIAcore analysis (rat, UniProt A0ABK0L6J5 19-740)
T1 construct: It may have been rTie-2-Fc
Assay: BIAcore

B1: FD1-Fc-FD1 (Fc fusion, human)
chain (part 1 of 2): FRDCADVYQAGFNKSGIYTIYINNMPEPKKVFCNMDVNGGGWTVIQHREDGSLDFQRGWKEYKMGFGNPSGEYWLGNEFIFAITSQRQYMLRIELMDWEGNRAYSQYDRFHIGNEKQNYRLYLKGHTGTAGKQSSLILHGADFSTKDADNDNCMCKCALMLTGGWWFDACGPSNLNGMFYTAGQNHGKLNGIKWHYFKGPSYSLRSTTMMIRPLDF
chain (part 2 of 2): FRDCADVYQAGFNKSGIYTIYINNMPEPKKVFCNMDVNGGGWTVIQHREDGSLDFQRGWKEYKMGFGNPSGEYWLGNEFIFAITSQRQYMLRIELMDWEGNRAYSQYDRFHIGNEKQNYRLYLKGHTGTAGKQSSLILHGADFSTKDADNDNCMCKCALMLTGGWWFDACGPSNLNGMFYTAGQNHGKLNGIKWHYFKGPSYSLRSTTMMIRPLDF
notes: domain: fibrinogen domain of Ang1; also called BA1; not shown: Fc
B1 was tested, and the Kd was 2 nM.
